Results on five sequences are retold here after patent US11504389.

What all share (assay): cell_activity
Data set [1] concerns ZFP SBS#57890 (synthetic). The conditions noted are these: human iPSC neurons, 3E5 VG/cell; poor mismatch tolerance.
The subject of data set [2] is ZFP SBS#52389 (synthetic). The conditions noted are these: AAV2/9 CMV-52389-KRAB, 3E5 VG/cell, mouse cortical neurons.
Data set [3] has as its system ZFP SBS#57880 (synthetic). The conditions noted are these: human iPSC neurons, 3E5 VG/cell.
Data set [4] deals with ZFP SBS#52322 (synthetic). The conditions noted are these: mouse hippocampus in vivo, mean MAPT mRNA reduction.
Data set [5] concerns ZFP SBS#52366 (synthetic). As to conditions: human iPSC neurons, 3E5 VG/cell.

“ACCCACCAGCTCCGGCAC (double strand) [57890 human MAPT site]” displayed an activity in data set [1] of 45 % repression.

Regarding “CCGTTGCGCCTGATTGATGCCCAGCTCC (double strand) [52389 target]”, the activity in data set [2] is 98 % repression.

Sequence “GCAGTCACCGCCACCCACC (double strand) [57880 human MAPT site]” displayed an activity in data set [3] of 95 % repression.

As for “GTGGCGGAGACTGAGAGCGCGCGCGGCC (double strand) [52322 target]”, the activity in data set [4] came out at 66 % repression.

For the sequence “TCTGTCGACTATCAG (double strand) [52366 human MAPT site]”, in data set [5], the activity was 87 % repression.
